The results in this text go back to patent publication US12325756.

Experiment [1] addresses human alpha-folate receptor on tumor cells (C30-F, C30M/F, A1847) (human), P15328. Kind of experiment: cell-based or functional assay.
Experiment [2] has as its target human mesothelin on tumor cells (C30-M, C30M/F, A1847) (human), Q13421. Kind of experiment: cell-based or functional assay.

human alpha-folate receptor on tumor cells (C30-F, C30M/F, A1847) (human), P15328, sequence (P15328 25-234, stated change not applied): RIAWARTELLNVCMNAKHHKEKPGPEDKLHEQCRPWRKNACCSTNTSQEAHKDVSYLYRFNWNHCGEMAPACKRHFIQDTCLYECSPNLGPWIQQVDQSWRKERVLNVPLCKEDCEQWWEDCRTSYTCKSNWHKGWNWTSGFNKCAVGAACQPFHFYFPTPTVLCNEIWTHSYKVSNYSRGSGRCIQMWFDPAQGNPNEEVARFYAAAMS
human mesothelin on tumor cells (C30-M, C30M/F, A1847) (human), Q13421, sequence (Q13421 other isoform, or with tags, fused parts or gaps C30M C30M): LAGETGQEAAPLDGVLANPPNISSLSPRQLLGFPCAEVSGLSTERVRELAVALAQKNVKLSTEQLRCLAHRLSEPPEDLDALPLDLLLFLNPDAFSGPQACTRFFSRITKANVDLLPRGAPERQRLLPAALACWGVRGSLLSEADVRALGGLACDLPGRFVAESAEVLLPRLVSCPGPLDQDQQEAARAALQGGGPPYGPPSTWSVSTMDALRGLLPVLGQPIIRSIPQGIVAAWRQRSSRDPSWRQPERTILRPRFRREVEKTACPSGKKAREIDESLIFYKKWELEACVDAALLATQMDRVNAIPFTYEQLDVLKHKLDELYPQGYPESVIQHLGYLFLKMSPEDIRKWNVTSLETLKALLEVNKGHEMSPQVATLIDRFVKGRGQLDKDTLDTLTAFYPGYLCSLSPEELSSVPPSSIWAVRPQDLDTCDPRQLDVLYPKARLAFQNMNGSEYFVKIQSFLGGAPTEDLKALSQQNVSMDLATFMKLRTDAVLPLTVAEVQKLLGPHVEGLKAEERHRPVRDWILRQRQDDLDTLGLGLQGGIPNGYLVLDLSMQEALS

B1: MOV19-28 (F-28) costimulatory-only anti-aFR chimeric antigen receptor (MOv-19 scFv - CD8a hinge - CD28 transmembrane - CD28 intracellular domain) (protein)
chain: GSSRAAQPAMAQVQLQQSGAELVKPGASVKISCKASGYSFTGYFMNWVKQSHGKSLEWIGRIHPYDGDTFYNQNFKDKATLTVDKSSNTAHMELLSLTSEDFAVYYCTRYDGSRAMDYWGQGTTVTVSSGGGGSGGGGSGGGGSDIELTQSPASLAVSLGQRAIISCKASQSVSFAGTSLMHWYHQKPGQQPKLLIYRASNLEAGVPTRFSGSGSKTDFTLNIHPVEEEDAATYYCQQSREYPYTFGGGTKLEIKRAAASTTTPAPRPPTPAPTIASQPLSLRPEACRPAAGGAVHTRGLDFACDFWVLVVVGGVLACYSLLVTVAFIIFWVRSKRSRLLHSDYMNMTPRRPGPTRKHYQPYAPPRDFAAYRS
The molecule B1 yielded an apoptosis (annexin V / 7-AAD) after 3 days with A1847 in experiment [1] of 0.5 to 1%.

B2: P4-z anti-mesothelin chimeric antigen receptor (P4 scFv - CD8a hinge and transmembrane region - CD3z) (protein)
chain: GSQVQLQQSGPGLVTPSQTLSLTCAISGDSVSSNSATWNWIRQSPSRGLEWLGRTYYRSKWYNDYAVSVKSRMSINPDTSKNQFSLQLNSVTPEDTAVYYCARGMMTYYYGMDVWGQGTTVTVSSGILGSGGGGSGGGGSGGGGSQPVLTQSSSLSASPGASASLTCTLRSGINVGPYRIYWYQQKPGSPPQYLLNYKSDSDKQQGSGVPSRFSGSKDASANAGVLLISGLRSEDEADYYCMIWHSSAAVFGGGTQLTVLSASTTTPAPRPPTPAPTIASRPLSLRPEACRPAAGGAVHTRGLDFACDIYIWAPLAGTCGVLLLSLVITLYCRVKFSRSADAPAYQQGQNQLYNELNLGRREEYDVLDKRRGRDPEMGGKPRRKNPQEGLYNELQKDKMAEAYSEIGMKGERRRGKGHDGLYQGLSTATKDTYDALHMQALPPR
B2 gave an apoptosis (annexin V / 7-AAD) after 3 days with A1847 in experiment [2] of 34%.
